# Source: WO2008073463A2 (dated 2008)
# B1: cynomolgus monkey IL-13 (NHP IL-13), recombinant (ligand)
# chain: SPVPPSTALKELIEELVNITQNQKAPLCNGSMVWSINLTAGVYCAALESLINVSGCSAIEKTQRMLNGFCPHKVSAGQFSSLRVRDTKIEVAQFVKDLLVHLKKLFREGQFN
# notes: also called non-human primate IL-13; cynomolgus IL-13
# B2: soluble human IL-13 receptor alpha2 with a human IgG1 Fc tail (sIL13Rα2-Fc) (Fc fusion, UniProt Q14627 27-343, looked up, not shown: a dimerising Fc or GST)
# chain: DTEIKVNPPQDFEIVDPGYLGYLYLQWQPPLSLDHFKECTVEYELKYRNIGSETWKTIITKNLHYKDGFDLNKGIEAKIHTLLPWQCTNGSEVQSSWAETTYWISPQGIPETKVQDMDCVYYNWQYLLCSWKPGIGVLLDTNYNLFYWYEGLDHALQCVDYIKADGQNIGCRFPYLEASDYKDFYICVNGSSENKPIRSSYFTFQLQNIVKPLPPVYLTFTRESSCEIKLKWSIPLGPIPARCFDYEIEIREDDTTLVTATVENETYTLKTTNETRQLCFVVRSKVNIYCSDDGIWSEWSDKQCWEGEDLSKKTLLR
# Experiments:
# [1] = target: B2; assay: not described
# [2] = target: B1; assay: cell-based or functional assay
# [3] = target: native human IL-13 (crude preparation from activated human cord blood Th2 cells) (human, UniProt P35225 34-146); assay: cell-based or functional assay
# Chain of native human IL-13 (crude preparation from activated human cord blood Th2 cells) (P35225 other isoform, or with tags, fused parts or gaps): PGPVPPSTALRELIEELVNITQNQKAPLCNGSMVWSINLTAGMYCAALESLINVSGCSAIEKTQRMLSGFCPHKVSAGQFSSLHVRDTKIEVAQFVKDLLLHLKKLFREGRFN
# [4] = target: B1; assay: SPR (BIACORE), Kd = kd / ka
# [5] = target: B1; assay: SPR (BIACORE), antibody captured on goat anti-human IgG Fc, NHP-IL-13 0.09-600 nM, 1:1 model, 22.5 C
binder,measurement,setting,value
B1,binding result,[1],binds
"mouse monoclonal antibody C65 (antibody, V domains shown) VH: QVQLKESGPGLVAPSQSLSITCTVSGFSLTGYGVNWVRQPPGKGLEWLGIIWGDGSTDYNSALKSRLIINKDNSKSQVFLKMNSLQTDDTARYFCARDKTFYYDGFYRGRMDYWGQGTSVTVSS VL: DVQMIQSPSSLSASLGDIVTMTCQASQGTSINLNWFQQKPGKAPKLLIFGASNLEDGVPSRFSGSRYGTNFTLTISSLEDEDMATYFCLQHSYLPWTFGGGTKLEIK",monocyte CD23 expression (3 ng/ml NHP IL-13),[2],~20 fold less active than MJ2-7 and sIL-13Rα2-Fc
same,STAT6 phosphorylation in HT-29 cells (0.3 ng/ml native human IL-13),[3],~20 fold less active
"humanized MJ 2-7 V2.11 IgG1 with a mutated CH2 domain (antibody, V domains shown, 'QSΓVΉS' read as QSIVHS; also called huMJ 2-7 V2.11; hMJ2-7 V2-11) VH: EVQLVESGGGLVQPGGSLRLSCAASGFNIKDTYIHWVRQAPGKGLEWIGRIDPANDNIKYDPKFQGRFTISADNAKNSAYLQMNSLRAEDTAVYYCARSEENWYDFFDYWGQGTLVTVSS VL: DIQMTQSPSSLSASVGDRVTITCRSSQSIVHSNGNTYLEWYQQKPGKAPKLLIYKVSNRFSGVPSRFSGSGSGTDFTLTISSLQPEDFATYYCFQGSHIPYTFGGGTKVEIKR","IC50, STAT6 phosphorylation in HT-29 cells (0.3 ng/ml native human IL-13)",[3],0.52 nM
same,Kd,[4],0.043 nM
same,koff,[5],0.000889 s⁻¹
same,kon,[5],2.05e+07 M⁻¹ s⁻¹
"humanized MJ 2-7 V2 (hMJ 2-7 VH V2 with hMJ 2-7 VL V2) (antibody, human IgG1, V domains shown) VH: EVQLVESGGGLVQPGGSLRLSCAASGFNIKDTYIHWVRQAPGKGLEWVARIDPANDNIKYDPKFQGRFTISRDNAKNSLYLQMNSLRAEDTAVYYCARSEENWYDFFDYWGQGTLVTVSS VL: DIQMTQSPSSLSASVGDRVTITCRSSQSIVHSNGNTYLEWYQQKPGKAPKLLIYKVSNRFSGVPSRFSGSGSGTDFTLTISSLQPEDFATYYCFQGSHIPYTFGGGTKVEIKR","concentration for half-maximal inhibition of native human IL-13 bioactivity, against murine MJ2-7",[3],~110 fold greater than murine MJ2-7
B2,"IC50, STAT6 phosphorylation in HT-29 cells (0.3 ng/ml native human IL-13)",[3],0.33 nM
"mouse monoclonal antibody MJ 2-7 (antibody, mouse IgG1, V domains shown) VH: EVQLQQSGAELVKPGASVKLSCTGSGFNIKDTYIHWVKQRPEQGLEWIGRIDPANDNIKYDPKFQGKATITADTSSNTAYLQLNSLTSEDTAVYYCARSEENWYDFFDYWGQGTTLTVSS VL: DVLMTQTPLSLPVSLGDQASISCRSSQSIVHSNGNTYLEWYLQKPGQSPKLLIYKVSNRFSGVPDRFSGSGSGTDFTLKISRVEAEDLGVYYCFQGSHIPYTFGGGTKLEIK","IC50, inhibition of CD23 expression (non-human primate IL-13 at 1 ng/ml)",[2],~0.242 nM
same,"IC50, STAT6 phosphorylation in HT-29 cells (0.3 ng/ml native human IL-13)",[3],0.48 nM
same,"IC50, inhibition of STAT6 phosphorylation (native human IL-13 at 1 ng/ml)",[3],~0.293 nM
same,"IC50, tenascin C production by BEAS-2B cells (3 ng/ml native human IL-13)",[3],~0.1 nM
